These results are taken from patent publication US20210403584A1 (ARMAGEN, published 2021).

In experiment [1] the target is human insulin receptor extracellular domain (HIR ECD) (human) (UniProt P06213). Put plainly: ELISA, HIR ECD plated; against the HIR Ab.
Experiment [2] concerns the target T1, human insulin receptor extracellular domain (HIR ECD) (human, UniProt P06213 28-956, limits assumed).
T1 construct: extracellular domain
Description: ELISA, recombinant HIR ECD plated, secondary antibody and alkaline phosphatase detection. On the procedure:
The potency of the CHO-derived fusion protein was assessed with the HIR ECD binding ELISA. The affinity of the fusion protein for the HIR extracellular domain (ECD) was determined with an ELISA. Recombinant HIR ECD was plated on Nunc-Maxisorb 96 well dishes and the binding of the HIR Ab, or the HIR Ab-GLB1 fusion protein, to the HIR ECD was detected with a secondary antibody, followed by binding with an alkaline phosphatase detector reagent. […] The MW of the HIR Ab is 150 kDa, and the MW of the HIR Ab-fusion protein is 334 kDa.

Take “GUSB-HIR Ab fusion protein (GUSB fused to the amino terminus of the HIR Ab heavy chain) (from UniProt P08236 23-633)”: in experiment [1], the binding activity lost is > 95%.

B1: chimeric HIR Ab (human insulin receptor antibody) (antibody, human IgG1, kappa, V domains shown)
VH: QVQLQQSGPELVKPGALVKISCKASGYTFTNYDIHWVKQRPGQGLEWIGWIYPGDGSTKYNEKFKGKATLTADKSSSTAYMHLSSLTSEKSAVYFCAREWAYWGQGTLVTVSA
VL: DIQMTQSPSSLSASLGERVSLTCRASQDIGGNLYWLQQGPDGTIKRLIYATSSLDSGVPKRFSGSRSGSDYSLTISSLESEDFVDYYCLQYSSSPWTFGGGTKMEIKR
notes: Chimeric antibody against the extracellular domain of the human insulin receptor; human IgG1/kappa constant regions; also called HIRMAb; HIR MAb
On to B1, for which the EC50 in experiment [2] is 0.037 µg/mL.
